Measured values from PMC10810279, “Biophysical and structural characterization of a multifunctional viral genome packaging motor” (Nucleic Acids Research, 2023).
“And” between values parts separate entries of the source, which are not always exact repeats. Identical values can stand only once.

T1: lambda terminase holoenzyme ring (TerL•TerS2)5 (Escherichia phage Lambda, UniProt P03708)
T1 construct: gene A; assembled ring of five TerL•TerS2 protomers; with Terminase small subunit
T1 sequence (P03708 1-641): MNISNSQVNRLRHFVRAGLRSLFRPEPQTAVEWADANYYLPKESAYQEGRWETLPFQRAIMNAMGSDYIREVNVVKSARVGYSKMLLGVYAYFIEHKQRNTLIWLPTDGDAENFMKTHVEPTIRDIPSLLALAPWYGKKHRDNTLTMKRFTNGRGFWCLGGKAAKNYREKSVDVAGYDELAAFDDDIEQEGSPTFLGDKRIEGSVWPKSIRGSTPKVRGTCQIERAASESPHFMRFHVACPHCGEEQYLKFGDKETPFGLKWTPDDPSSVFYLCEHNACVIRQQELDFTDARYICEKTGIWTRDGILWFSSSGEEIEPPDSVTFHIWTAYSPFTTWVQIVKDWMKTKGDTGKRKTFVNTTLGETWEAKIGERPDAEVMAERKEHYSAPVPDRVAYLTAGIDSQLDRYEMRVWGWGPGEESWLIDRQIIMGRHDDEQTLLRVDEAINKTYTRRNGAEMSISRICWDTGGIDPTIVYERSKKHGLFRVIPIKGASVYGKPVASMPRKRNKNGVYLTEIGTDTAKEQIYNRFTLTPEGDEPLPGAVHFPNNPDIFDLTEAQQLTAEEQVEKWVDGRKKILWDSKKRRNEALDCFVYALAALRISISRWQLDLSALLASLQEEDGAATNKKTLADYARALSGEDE
T1 sequence (P03707 1-181 partner): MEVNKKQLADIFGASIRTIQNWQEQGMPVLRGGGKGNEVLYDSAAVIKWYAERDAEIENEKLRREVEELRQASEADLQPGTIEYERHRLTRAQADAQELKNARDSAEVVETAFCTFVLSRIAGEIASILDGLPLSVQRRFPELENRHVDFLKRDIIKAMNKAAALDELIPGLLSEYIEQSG

B1: bacteriophage λ terminase small subunit (TerS) (natural protein, UniProt P03707 1-181, looked up)
chain: T1 sequence (P03707 1-181 partner)
notes: small DNA recognition terminase subunit TerS of bacteriophage lambda; Never tested as an isolated subunit, only as part of the protomer or ring; also called small terminase
B2: bacteriophage λ terminase large subunit (TerL) (enzyme, UniProt P03708 1-641, looked up)
chain: T1 sequence (P03708 1-641)
notes: large catalytic terminase subunit TerL of bacteriophage lambda; Never tested as an isolated subunit, only as part of the protomer or ring; also called large terminase

How the values were obtained:
[1] = molecular target: T1, lambda terminase holoenzyme ring (TerL•TerS2)5; assay: ATPase assay, […] TLC, phosphorimaging; assay type: biochemical; conditions: labelled compound; 10 nM terminase; 50 mM Tris-HCl pH 9, 10 mM MgCl2, 60 mM NaCl, 2 mM spermidine, 37 °C
[2] = molecular target: T1, lambda terminase holoenzyme ring (TerL•TerS2)5; assay: cryoEM 2D class averages (conformational change); assay type: binding; conditions: 1 mM ATPγS; no DNA mentioned; no 3D reconstruction
[3] = molecular target: bacteriophage λ terminase protomer (TerL•TerS2) (bacteriophage λ) (UniProt P03708); assay: SAXS; assembled terminase ring at 0.25, 0.50 and 0.80 mg/ml, 5°C; mass from the Porod-invariant volume; protomers to ring
[4] = molecular target: bacteriophage λ terminase protomer (TerL•TerS2) (bacteriophage λ) (UniProt P03708); assay: cryo-EM 2D class averages; purified terminase ring at 0.5 mg/ml, no ligand (apo); no 3D reconstruction
[5] = molecular target: bacteriophage λ terminase protomer (TerL•TerS2) (bacteriophage λ) (UniProt P03708); assay: native MS; charge detection mass spectrometry (CDMS) of the assembled ring, 300 mM ammonium acetate pH 8.34
[6] = molecular target: bacteriophage λ terminase protomer (TerL•TerS2) (bacteriophage λ) (UniProt P03708); assay: cryo-EM 2D class averages; purified terminase ring at 0.5 mg/ml with 1 mM ATPγS; no 3D reconstruction
[7] = molecular target: B2; assay: native MS; charge detection mass spectrometry (CDMS) of the terminase protomer, 200 mM ammonium acetate; conditions: both partners purified
[8] = molecular target: the molecule itself; assay: cryo-EM 2D class averages; purified terminase ring at 0.5 mg/ml with 1 mM ATPγS; no 3D reconstruction

`Nc1ncnc2c1ncn2[C@@H]1O[C@H](COP(=O)(O)OP(=O)(O)OP(=O)(O)O)[C@@H](O)[C@H]1O` [ATP] was tested, and the Km [1] was 0.495 ± 0.07 µM.

For `Nc1ncnc2c1ncn2[C@@H]1O[C@H](COP(=O)(O)OP(=O)(O)OP(O)(O)=S)[C@@H](O)[C@H]1O` [ATPγS], the “cryoEM 2D class averages (conformational change)” value [2] was “we imaged the λ terminase ring bound to ATP-γS, a poorly hydrolyzed ATP analog”.

With “bacteriophage λ terminase protomer (TerL•TerS2) (from UniProt P03708 1-641; P03707 1-181) (complex)” the stoichiometry N [3] was 5.1 and 4.2 and 4.4, the stoichiometry N [4] was 5 and the stoichiometry N [5] was 5 protomers. It also gave a stoichiometry N [6] of 5.

B1: binds [7].

B2: binds [8].
